Data published in patent US20050026822A1 (HOWARD FLOREY INSTITUTE OF EXPERIMENTAL PHYSIOLOGY AND …, published 2005).
Bridge positions count the residues as written; N and C are the ends. Ends that are not written are not given here. I, II: the chains in the order shown.

How the values were obtained:
[1] = target: T1, Human relaxin receptor on THP-1 cells (human, UniProt Q9HBX9 1-757); experiment: cell-based or functional assay
T1 sequence (looked up): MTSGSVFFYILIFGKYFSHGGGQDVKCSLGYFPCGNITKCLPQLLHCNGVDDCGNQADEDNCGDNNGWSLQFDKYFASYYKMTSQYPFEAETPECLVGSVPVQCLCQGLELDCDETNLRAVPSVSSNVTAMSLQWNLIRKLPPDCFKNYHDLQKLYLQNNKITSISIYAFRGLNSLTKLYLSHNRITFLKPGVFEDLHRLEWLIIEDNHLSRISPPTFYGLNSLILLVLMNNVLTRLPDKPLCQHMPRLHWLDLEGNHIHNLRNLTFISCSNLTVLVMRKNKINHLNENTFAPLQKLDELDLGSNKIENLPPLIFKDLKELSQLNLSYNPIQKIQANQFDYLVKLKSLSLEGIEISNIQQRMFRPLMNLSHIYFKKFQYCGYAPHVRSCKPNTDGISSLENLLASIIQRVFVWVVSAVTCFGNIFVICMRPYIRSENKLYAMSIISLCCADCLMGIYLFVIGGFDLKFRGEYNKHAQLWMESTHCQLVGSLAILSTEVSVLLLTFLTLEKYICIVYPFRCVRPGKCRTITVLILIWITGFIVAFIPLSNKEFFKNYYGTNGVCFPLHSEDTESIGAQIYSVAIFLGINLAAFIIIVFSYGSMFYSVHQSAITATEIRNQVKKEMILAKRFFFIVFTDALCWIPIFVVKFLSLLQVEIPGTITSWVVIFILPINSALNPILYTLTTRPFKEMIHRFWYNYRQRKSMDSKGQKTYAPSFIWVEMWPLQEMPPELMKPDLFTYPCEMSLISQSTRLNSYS

[2] = target: T1, Human relaxin receptor on THP-1 cells; experiment: competition with 33P-labeled H2 (B33) relaxin (100 pM) for binding to THP-1 cells
Procedure: THP-1 Cell Binding Assay—THP-1 cells were spun down and resuspended in binding buffer (20 mM HEPES, 50 mM NaCl, 1.5 mM CaCl₂, 1% BSA, 0.1 mg/ml lysine, 0.01% […], pH 7.5) (Parsell et al (1996) J. Biol. Chem. 271, 27936-27941) to give 2×10⁶ cells/well in a 96-well plate. The cells were incubated in binding buffer with ³³P-labeled H2 (B33) relaxin (100 pM: labeled as previously described (Tan et al (1999) Br. J. Pharmacol. 127, 91-98) at 25° C. for 90 min in the absence or presence of increasing concentrations of unlabeled H1, H2 and H3 relaxin (100 pM to 30 nM). Non-specific binding was defined with H2 relaxin (1 μM. Cells were harvested using a Packard 96-well plate cell harvester and Whatman GF/C glass fibre filters treated with 0.5% polyethylenimine. The filters were washed three times with modified binding buffer (20 mM HEPES, 50 mM NaCl, 1.5 mM CaCl₂), dried in a 37° C. oven, and the radioactivity counted by liquid scintillation spectrometry (TopCount™, Canberra Packard, Australia).

B1: Synthetic human H3 relaxin [hRlx-3 A(1-24) amide-B(1-27) amide] (ligand)
chain 1: DVLAGLSSSCCKWGCSKSEISSLC-NH2
chain 2: RAAPYGVRLCGREFIRAVIFTCGGSRW-NH2
modifications: disulfide I:10-I:15, I:11-II:10, I:24-II:22
notes: Made by solid phase synthesis; also called human 3 relaxin; synthetic H3 relaxin C-terminal amide derivative
B1 was tested, and the “cAMP production in THP-1 cells, EC50” value [1] was 2.11 nM, the “cAMP production in THP-1 cells, pEC50” value [1] was 8.68 and the pKi [2] was 7.5.

B2: Recombinant human H2 relaxin (ligand)
chain 1: QLYSALANKCCHVGCTKRSLARFC
chain 2: DSWMEEVIKLCGRELVRAQIAICGMSTWS
modifications: not fully specified (bridges); ends and bridges not checked
notes: mature; Gift from Connetics Corporation; also called human 2 relaxin
With B2 the “cAMP production in THP-1 cells, EC50” value [1] was 0.214 nM, the “cAMP production in THP-1 cells, pEC50” value [1] was 9.67 and the pKi [2] was 8.74.

B3: Synthetic human H1 relaxin (ligand)
chain 1: RPYVALFEKCCLIGCTKRSLAKYC
chain 2: KWKDDVIKLCGRELVRAQIAICGMSTWS
notes: mature; Synthesized previously (Wade et al 1996); also called human 1 relaxin
In the case of B3, the “cAMP production in THP-1 cells, EC50” value [1] is reported as 0.794 nM, the “cAMP production in THP-1 cells, pEC50” value [1] is reported as 9.1 and the pKi [2] is reported as 8.9.
